# Laboratory results as given in the Human Domainome abundance scans (Beltran et al. 2025).
# ± gives the uncertainty stated by the source.
# Assay: abundance fitness (aPCA) (normalised: wild type 0, dead -1); higher = more abundant; growth selection in yeast, the domain comes from the species named
# Settings: Homo sapiens
row,Substance,abundance fitness
1,"SAFB-like transcription modulator L52C, Q9NWH9",-0.827 ± 0.12
2,"SAFB-like transcription modulator L52D, Q9NWH9",-0.497 ± 0.05
3,"SAFB-like transcription modulator L52E, Q9NWH9",-0.456 ± 0.15
4,"SAFB-like transcription modulator L52F, Q9NWH9",-0.568 ± 0.12
5,"SAFB-like transcription modulator L52G, Q9NWH9",-0.611 ± 0.048
6,"SAFB-like transcription modulator L52M, Q9NWH9",-0.456 ± 0.1
7,"SAFB-like transcription modulator L52N, Q9NWH9",-0.385 ± 0.23
8,"SAFB-like transcription modulator L52P, Q9NWH9",-0.467 ± 0.12
9,"SAFB-like transcription modulator L52Q, Q9NWH9",-0.927 ± 0.45
10,"SAFB-like transcription modulator L52R, Q9NWH9",-0.808 ± 0.057
11,"SAFB-like transcription modulator L52S, Q9NWH9",-0.563 ± 0.087
12,"SAFB-like transcription modulator L52T, Q9NWH9",-0.642 ± 0.16
13,"SAFB-like transcription modulator L52V, Q9NWH9",-0.412 ± 0.077
14,"SAFB-like transcription modulator L52W, Q9NWH9",-1.15 ± 0.14
15,"SAFB-like transcription modulator L52Y, Q9NWH9",-0.651 ± 0.17
16,"SAFB-like transcription modulator L68A, Q9NWH9",0.219 ± 0.15
17,"SAFB-like transcription modulator L68C, Q9NWH9",-0.092 ± 0.097
18,"SAFB-like transcription modulator L68F, Q9NWH9",-0.164 ± 0.09
19,"SAFB-like transcription modulator L68G, Q9NWH9",-0.165 ± 0.086
20,"SAFB-like transcription modulator L68H, Q9NWH9",0.053 ± 0.29
21,"SAFB-like transcription modulator L68I, Q9NWH9",0.295 ± 0.089
22,"SAFB-like transcription modulator L68M, Q9NWH9",-0.188 ± 0.061
23,"SAFB-like transcription modulator L68P, Q9NWH9",0.022 ± 0.062
24,"SAFB-like transcription modulator L68Q, Q9NWH9",-0.14 ± 0.075
25,"SAFB-like transcription modulator L68R, Q9NWH9",-0.165 ± 0.067
26,"SAFB-like transcription modulator L68S, Q9NWH9",-0.16 ± 0.063

row,Substance,abundance fitness
1,"SAFB-like transcription modulator L68T, Q9NWH9",-0.135 ± 0.065
2,"SAFB-like transcription modulator L68V, Q9NWH9",-0.075 ± 0.063
3,"SAFB-like transcription modulator L68W, Q9NWH9",-0.181 ± 0.052
4,"SAFB-like transcription modulator L68Y, Q9NWH9",-0.763 ± 0.31
5,"SAFB-like transcription modulator N38A, Q9NWH9",-0.296 ± 0.063
6,"SAFB-like transcription modulator N38D, Q9NWH9",-0.222 ± 0.086
7,"SAFB-like transcription modulator N38E, Q9NWH9",-0.153 ± 0.034
8,"SAFB-like transcription modulator N38F, Q9NWH9",-0.24 ± 0.083
9,"SAFB-like transcription modulator N38G, Q9NWH9",-0.002 ± 0.047
10,"SAFB-like transcription modulator N38H, Q9NWH9",-0.492 ± 0.2
11,"SAFB-like transcription modulator N38K, Q9NWH9",-0.092 ± 0.047
12,"SAFB-like transcription modulator N38L, Q9NWH9",-0.247 ± 0.05
13,"SAFB-like transcription modulator N38M, Q9NWH9",-0.192 ± 0.057
14,"SAFB-like transcription modulator N38P, Q9NWH9",-1.06 ± 0.15
15,"SAFB-like transcription modulator N38Q, Q9NWH9",-0.04 ± 0.046
16,"SAFB-like transcription modulator N38R, Q9NWH9",-0.141 ± 0.044
17,"SAFB-like transcription modulator N38S, Q9NWH9",-0.105 ± 0.048
18,"SAFB-like transcription modulator N38T, Q9NWH9",-0.233 ± 0.073
19,"SAFB-like transcription modulator N38V, Q9NWH9",-0.688 ± 0.052
20,"SAFB-like transcription modulator N38W, Q9NWH9",-0.368 ± 0.037
21,"SAFB-like transcription modulator N38Y, Q9NWH9",-0.455 ± 0.11
22,"SAFB-like transcription modulator N65A, Q9NWH9",-0.236 ± 0.065
23,"SAFB-like transcription modulator N65C, Q9NWH9",-0.126 ± 0.074
24,"SAFB-like transcription modulator N65D, Q9NWH9",-0.186 ± 0.082
25,"SAFB-like transcription modulator N65E, Q9NWH9",-0.165 ± 0.069
26,"SAFB-like transcription modulator N65F, Q9NWH9",-0.101 ± 0.065

row,Substance,abundance fitness
1,"SAFB-like transcription modulator N65G, Q9NWH9",-0.365 ± 0.052
2,"SAFB-like transcription modulator N65H, Q9NWH9",-0.166 ± 0.084
3,"SAFB-like transcription modulator N65K, Q9NWH9",-0.103 ± 0.038
4,"SAFB-like transcription modulator N65L, Q9NWH9",-0.206 ± 0.035
5,"SAFB-like transcription modulator N65M, Q9NWH9",-0.135 ± 0.055
6,"SAFB-like transcription modulator N65P, Q9NWH9",-0.575 ± 0.036
7,"SAFB-like transcription modulator N65Q, Q9NWH9",-0.176 ± 0.076
8,"SAFB-like transcription modulator N65R, Q9NWH9",-0.094 ± 0.045
9,"SAFB-like transcription modulator N65S, Q9NWH9",-0.162 ± 0.04
10,"SAFB-like transcription modulator N65T, Q9NWH9",-0.281 ± 0.059
11,"SAFB-like transcription modulator N65W, Q9NWH9",-0.339 ± 0.071
12,"SAFB-like transcription modulator N65Y, Q9NWH9",-0.191 ± 0.065
13,"SAFB-like transcription modulator P63A, Q9NWH9",-0.23 ± 0.053
14,"SAFB-like transcription modulator P63C, Q9NWH9",-0.134 ± 0.04
15,"SAFB-like transcription modulator P63D, Q9NWH9",-0.553 ± 0.064
16,"SAFB-like transcription modulator P63E, Q9NWH9",-0.337 ± 0.058
17,"SAFB-like transcription modulator P63F, Q9NWH9",-0.257 ± 0.045
18,"SAFB-like transcription modulator P63H, Q9NWH9",-0.397 ± 0.049
19,"SAFB-like transcription modulator P63I, Q9NWH9",-0.165 ± 0.057
20,"SAFB-like transcription modulator P63K, Q9NWH9",-0.354 ± 0.074
21,"SAFB-like transcription modulator P63L, Q9NWH9",-0.213 ± 0.038
22,"SAFB-like transcription modulator P63M, Q9NWH9",-0.264 ± 0.068
23,"SAFB-like transcription modulator P63N, Q9NWH9",-0.422 ± 0.045
24,"SAFB-like transcription modulator P63Q, Q9NWH9",-0.48 ± 0.082
25,"SAFB-like transcription modulator P63R, Q9NWH9",-0.478 ± 0.053
26,"SAFB-like transcription modulator P63S, Q9NWH9",-0.17 ± 0.049

row,Substance,abundance fitness
1,"SAFB-like transcription modulator P63T, Q9NWH9",-0.053 ± 0.065
2,"SAFB-like transcription modulator P63V, Q9NWH9",-0.09 ± 0.034
3,"SAFB-like transcription modulator P63W, Q9NWH9",-0.245 ± 0.059
4,"SAFB-like transcription modulator P63Y, Q9NWH9",-0.214 ± 0.051
5,"SAFB-like transcription modulator Q54A, Q9NWH9",-0.167 ± 0.083
6,"SAFB-like transcription modulator Q54C, Q9NWH9",-0.209 ± 0.087
7,"SAFB-like transcription modulator Q54F, Q9NWH9",-0.068 ± 0.1
8,"SAFB-like transcription modulator Q54G, Q9NWH9",-0.258 ± 0.069
9,"SAFB-like transcription modulator Q54K, Q9NWH9",0.057 ± 0.1
10,"SAFB-like transcription modulator Q54L, Q9NWH9",0 ± 0.072
11,"SAFB-like transcription modulator Q54M, Q9NWH9",-0.009 ± 0.1
12,"SAFB-like transcription modulator Q54N, Q9NWH9",-0.037 ± 0.24
13,"SAFB-like transcription modulator Q54P, Q9NWH9",-0.666 ± 0.3
14,"SAFB-like transcription modulator Q54R, Q9NWH9",-0.106 ± 0.045
15,"SAFB-like transcription modulator Q54S, Q9NWH9",-0.526 ± 0.1
16,"SAFB-like transcription modulator Q54T, Q9NWH9",0.146 ± 0.09
17,"SAFB-like transcription modulator Q54V, Q9NWH9",-0.209 ± 0.078
18,"SAFB-like transcription modulator Q54W, Q9NWH9",-0.043 ± 0.08
19,"SAFB-like transcription modulator Q54Y, Q9NWH9",-0.497 ± 0.27
20,"SAFB-like transcription modulator R26A, Q9NWH9",-0.12 ± 0.1
21,"SAFB-like transcription modulator R26C, Q9NWH9",-0.57 ± 0.14
22,"SAFB-like transcription modulator R26D, Q9NWH9",0.033 ± 0.15
23,"SAFB-like transcription modulator R26E, Q9NWH9",-0.191 ± 0.11
24,"SAFB-like transcription modulator R26F, Q9NWH9",-0.268 ± 0.065
25,"SAFB-like transcription modulator R26G, Q9NWH9",-0.19 ± 0.08
